Measured values as given in the nanobody polyreactivity screen of Harvey et al. (2022).

Experiment: yeast display, Sf9 membrane polyspecificity reagent, FACS + sequencing; frameworks hold sequencing errors
Procedure, shortened: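 A nanobody's polyreactivity label depends on the gate it was sorted from. Yeast display cells were stained with 10% biotinylated, detergent-solubilized Sf9 membrane reagent for 1 hour at 4 °C, enriched on streptavidin microbeads and sorted by FACS. The low and high (top ~1%) gates were set on anti-HA fluorescence for expression and streptavidin fluorescence for reagent binding.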

Sequence	polyreactivity (PSR sort gate)
QVQLVESGGGLVQAGGSLRLSCAASGLIFRPYAMGWYRQAPGKERELVAAITSGGSTDYADSVKGRFTISRDNAKNTVYLQMNSLKPQDTAVYYCNADTIPDGEDRYVYWGQGTQVTVSS	low polyreactivity
QVQLVESGGGLVQAGGSLRISCAASGFIFQSNAMGWYRQAPGKERELVAAISWSGDNTYYADSVKGRFTISRDNAKNTVYLQMNSLKPEDTAVYYCAAVPYPSYYDTGYDYWGQGTQVTVSS	low polyreactivity
QVQLVESGGGLVQAGGSLRLSCAASGSISVRNVMGWYRQAPRKERELVATIRRTGGSTSYADSVKGRFTISRDNAKNTVYLQMNSLKPEDTAVYYCAAVGYTTYRRYDYWGQGTQVTVSS	low polyreactivity
QVQLVESGGGLVQAGGSLRLSCAASGLTFKRYGMGWYIQAPGKERELVAAINWRGTSTYYADSVKGRFTISRDNAKNTVYLQMNSLKPEDTAVYYCAAVGPFYGPGEYWGQGTQVTVSS	high polyreactivity
QVQLVESGGGLVQAGGSLRLSCAASGSTFYLYTMGWYIQAPGKERELVAAISPSGGSTRYADSVKGRFTISRDNAKNTVYLQMNSLKPEDTAVYYCAARSTVYPRPHERDYWGQGTQVTVSS	high polyreactivity
QVQLVESGGGLVQAGRSLRLNCAASGLTFYKYAMGWYRQAPGKERELVAAISYRGGSTYYADSVKGRFTISRDNAKNTVSLQLNSLKPEVTAVYYCAAGYPYGGDYWGQGTQVTVSS	high polyreactivity
QVQLVESGGGLVQAGGSLRLSCAASGFIFVDNAMGWYRQAPRQERELVASITRGGSTDYADSVKGRFTISRDNAKNTVYLQRNSLKPEDTAVYYCAASWHRPAPDEGMDYWGQGTQVTVSS	low polyreactivity
QVQLVESGGGLVQAGGSLRLSCAASGSIFAPDVMGWYRQAPGKERELVAAITESGGRTYYAASVKGRFTISRDNAKNTVYLQMNSLKPVDTAVYSCAARTFDRNRQLRRQWYDYWGLGTQVTVSS	high polyreactivity
QVQLVESGGGLVQAGGSLRLSCAASGSTFINYAMGWYRQAPGKERELVAAISKGGGSTYYADSVKGRFTISRDNAKNTVYLQMTSLKPEDTAVYYCAATGRAGAGKRKYEYWGQGTQVTVSS	high polyreactivity
QVQLVESGGGLVQAGGSLRLSCAASGSIFTHNAMGWYRQAPGNERELVAAISSGGSTNYADSVKGRFTISRDNAKNTVYLQMNSLKPEDTAVYYCAKSIDGWYWRRRRYDYWGQGTQVTVSS	low polyreactivity
QVQLVESGGGLVQAGGILRLSCAASGFTFSWYAMGWYRQAPGKERELVAAINADGGTTYYADSVKGRFTISRDNAKNTVYLQMNSLKPEDTAVYYCAAELSVDKYDYWGQGTQVTVSS	low polyreactivity
QVQLVESGGGLVQAGGSLRLSCAASGRIFAGYAMGWYRQAPGKERELLATISSGGSTYFAHSVKGRFTISRDNAKNTVYLQMNSLKPEDTAVYYCSAEYGTRQYSCYYKLFNYWGQGTQVTVSS	low polyreactivity
QVQLVESGGGLVQAGGSLRLSCAASGSTFVVYAMGWYRQAPGKERELLAAIRANVGGTYYADSVKGRFTISRDNAKNTVYLQMNSLKPEDTAVYYCAAGGYYYNPSFTYGILDYEYCGQGTQVTVSS	low polyreactivity
QVQLVESGGGLVQAGGSLRLSCAASGRIFYIHAMGWYRQAPGKERELVAAITSNGGSTYYADSVKGRFTISRDNAKNTVYLQMNCLKPEDTAVYYCAARRYKVSRTSYGYGYWGQGTQVTVSS	high polyreactivity
QVQLVESGGGLVQAGGSLRLSCAAYGSTFSLNTMGWYRQAPGKERELVAAITSGGSTNYADSVKGRFTISRDNAKNTVYLQMNSLKPEDTSVYYCAATPGRGGGYNYWGQGTQVTVSS	low polyreactivity
QVQIVESGGGLVQAGGSLRLSSAAYGSTFAIYTMGWSRQAPGKERELVATISYSGGGTYYADSVKGRFTISRDNAKNTVYLQMNSLKPEDTAVYYCAAGRRTYYGTYYYWGQGTQVNVSS	high polyreactivity
QVQLVESGGGLVQAGGSLRLSCAASGLIFFNYYAMGWYRQAPGKERELVAAIRYGGGSTYYADSVKGRFTISRDNAKNTVYLLMNSLKPEDTAVDYCAARFKGYYRYGYWGQGTQVTVSS	high polyreactivity
QVQLVESGGGLVQAGGSLRLSCAASGNIFYQYAMGWYRQAPGKDREFVAAISISGTSTYADSVKGRFTISRDNAKNTVYLQMNSLKPEDTAVYWGQGTQVTVSS	low polyreactivity
QVQLVESGGGLVQAGGSLRLSCAASGSIFSGNAMGWYRQAPGKVRELVAAISRSGGSTYYADSVKGRFTISRDNAKNTVYLQMNSLKPEDTAVYYCAAYRTHGPPRAIRFDYWGQGTQVTVSS	high polyreactivity
QVQLVESGGCLVQAGGSLRLSCAPSGYTFGRNAMGWYRQAPGKEWELVATISQRGGSTYYADSVKGRFTISRDNAKNTVYLQLNSLKPEDTAVYYCSAGPIYRYRRYYYWGQGTQVTVSS	high polyreactivity
QVQLVESGGGLVQAGGSLRLSCAASGRIFLINAMGWYRQARGKEWELVAAIRTGGNTYYADSVKGRFTISRDNAKTTVYLQMNSLKPEDTAVYYCAAARIYPYYRWSGAHRSDVDYWGQGTQVTVSS	low polyreactivity

Sequence	polyreactivity (PSR sort gate)
QVQLVESGGGLVQAGGSHRLSCAASGSIFTINPMGWYRQAPGKERELVAAIRSGGGTNYADSVKGRFTISRDNAKNTVYLQMISLKPEDTAVYYCAADLWAGKYGEYDYWGQGTQVTVSS	high polyreactivity
QVQLVESGVGLVQAGGTLRLSCAATGSIFWDYAMGWYRHAPGKERQLVASITSGGSTYYADSVKGRFTISRDNAMNTVYLQMNSLKPEETAVYYCAADGHTRHWGQTGRGAMYYWGQGTQVTVSS	low polyreactivity
QVQLVESGGRLDQARGSLRLSCAASGYNFQPYAMGWYRLAPGKERDLVAAISWRGGSTYYADSVKGRFTISRDNAKNTVYLQMTSLKPEDTAVYYCAKDYYYGLEHYGYWGQGTQVTVSS	low polyreactivity
QVQLVESGGGLVQAGGSLRLSCAASGRIFTQNAMGWYRQAPGKERELVAAINYSGGRTYYADSVKGRFTISRDNAKNTVYLQMNSLKPEDTAVYYCAAEWYTRFYISYGYWGQGTQVTVSS	high polyreactivity
QVQLVESGGGLVQAGGSLRLSCAASGSTFGIYAMRWYRQAPGKERELVAAISSRGSTYYADSVKGRFTISRDNAKNTVYLQMNSLKPEDTAVYYCAAKVWARVDGRQFRMVYWGQGTQVTVSS	high polyreactivity
QVQLVESGGGLVQAGGSLRLSCAASGRIFAVYAMGWYRQAPGKERELVAAISWSGGRTNYADSVKGRFTISRDNAKKTVYLQMNSLKPEDTAVYYCNARQWRFGFVASGGKYNYWGQGTQVTVSA	high polyreactivity
QVQLVESGGGLVQAGGSLRLSCAASGSTFRWNAMGWYRQAPGKERELDAAINSGGSTNYADSVKGRFTISRDNAKNTVYLQMNSLKPEDTAVYYCATRYDVSYIKFDYWGQGTQVTVSS	high polyreactivity
QVQLVESGGGLVQAGGSLRLSCAASGSTFIYNAMGWYRQAPGKERELVAAITWNGGSTYYADSVKGRFTISRDNAKNTVYLQMNSLKPEDTAVYYCAVDKGSQPHYDYWGQGTQVTVSS	low polyreactivity
QVQLVESGGGLVQAGGSLRLSCAASGSIFDLNTMGWYRQAPGKERELVAAITWGGGSTYYADSVKGRFTISRDNAKNTVYLQMNSLKPEDTAVYYCNVTWSWGEKGRKAYGYWGQGTQVTVSS	low polyreactivity
QVQLVESGGGLVQAGGSLRLSCAASGNIFYINTMGWYRQAPGKERELVAAIDASDGSTYYADSVKGRFTISRDNAKNSVYLQMYSLKPEDTAVYYCASRRGYDSVYYFYTLWYYYWGQGTQVTVSS	low polyreactivity
QVQLVESGGCLVQAGGSLRLSCAASGFTFHDYAMGWYRQAPGKERELVAAITKSGGRTYYADSVKGRFTISRDNAQNTVYLQMNSLKPVDTAVYYRAAKSYWGQVTQVTVSS	high polyreactivity
QVQLVESGGGLVQAGGSLRLSCAASGLTFYRYAMGWYRQAPGKERELVATIRSGDGTYYADSVKGRFTISRDNAMNTVYFKMNSLKPEDTAVYYCAAKKVYRVYGRYEYWGQGTQVTVSS	high polyreactivity
QVQLVQSGGGLVQAGGSLRLSCAASGSTFPTNAMGWYRQAPGKERELVAAITSTGSTYADSVKGRFTISRDNAKNTVYLQMNSLKPEDTAVYYCAADTQWTTPYDYWGQGTQVTVSS	low polyreactivity
QVQLVESGGGLVQAGGSLRLSCAASGRTFWRNDMGWYRQAPGKERELVARISWSGGSTYYADSVKGRFTISRDNAKNTVYLQMNSLKPEDTAVYYCAKYYPGRSAFSDGNYWGQGTQVTVSS	low polyreactivity
QVQLQESGGDLEQAGGSLRLSCTASGTISDVRVMGWSRQAPGKERELVATISYVTITYYADSVKGRFTISRDSEKHRVSADDEPETGRYRGVLFRYYWGLGTQVTVSS	low polyreactivity
QVQLVESGGGLVQAGGSLRLSCAASGRNYVYNAMGRYRQAPGKETELVAAITSSGGSTYYADSVKGRFTISRDNAKNSVDLQMNSLKPEDTAVYYCAADVQPDTRSTPEMDYWGQGTQVTVSS	low polyreactivity
QVQLVESGGCLVQAGGSLRLSCAASGFIFWDYAMGWYRQAPGKERELVAAISDSGGDKYYADSVKGRFTISRDNAKNTVYLQMNSLKPEDTAVYYCAADVELWVFRGQQYDYWGQGTQVTVSS	low polyreactivity
QVQLVESGGGLVQAGGSLRLSCAASGSTFFNYAMGWYRQAPGKERELVAAITGSGGRTYYADSVKGRFTISRDNAKNTVYLQMNSLKPEDTAVYYCAASATYDPHDYWGQGTQVTVSS	high polyreactivity
QVQLVESGGGLVQAGGSRRLSCAASGSTFYPYAMGWYRQAPGKERELVAAITWSGGRTYYADSVKGRFTISRDNAKNTVYLQMNSLKPEDTAVYYCAADRPDRWVDYWGQGTQVTVSS	low polyreactivity
QVQLVESGGGLVQAGGSLRLSCAASGRTFNPYSLGWYRQAPGIVRELVAAISYRGGSTYNADSVKGRFTISRDNAKNTVYLQLNSLKPEDTAVYYCAKRGYASGSKWDYGYWGQGTQVTVSS	high polyreactivity
